In publication PMC5599796, “Structural insights into transcription initiation by yeast RNA polymerase I” (The EMBO Journal, 2017):
Blank lines part the entries; values can stand above or below the binder they belong to.

Assays:
Rrn7 = biological target: T1, Rrn7 (yeast, UniProt P40992 1-514); experiment: cross-linking; purified Pol I PIC (50 ug, 1 mg/ml) with H12/D12 DSS at 2 and 5 mM, 30 min at 37°C; LC-MS/MS, xQuest, LD score at least 23; conditions: both partners purified
T1 construct: Rrn7, TFIIB-like subunit of yeast Core Factor; Stood in the assay as a subunit of CF within the Pol I PIC; also called CF subunit Rrn7; TFIIB-related subunit Rrn7; source: E. coli BL21(DE3)Star pRARE, co-expressed as Core Factor, purified
T1 sequence: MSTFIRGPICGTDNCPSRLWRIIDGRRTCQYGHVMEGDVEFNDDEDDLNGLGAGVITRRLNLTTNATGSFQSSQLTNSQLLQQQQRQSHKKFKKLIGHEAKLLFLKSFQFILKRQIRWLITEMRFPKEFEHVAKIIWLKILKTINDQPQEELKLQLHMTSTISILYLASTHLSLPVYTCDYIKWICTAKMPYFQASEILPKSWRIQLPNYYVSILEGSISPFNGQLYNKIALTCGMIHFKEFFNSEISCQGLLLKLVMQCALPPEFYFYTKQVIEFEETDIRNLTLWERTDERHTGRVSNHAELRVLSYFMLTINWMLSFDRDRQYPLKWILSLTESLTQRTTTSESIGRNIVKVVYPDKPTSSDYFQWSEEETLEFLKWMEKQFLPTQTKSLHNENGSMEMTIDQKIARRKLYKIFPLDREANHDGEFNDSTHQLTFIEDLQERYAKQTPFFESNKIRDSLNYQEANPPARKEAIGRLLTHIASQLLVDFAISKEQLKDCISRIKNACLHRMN

A135 = biological target: T2, A135 (S. cerevisiae (endogenous in strain …, UniProt P22138 1-1203)); experiment: cryo-EM structure; Pol I (1.5 uM) and Rrn3 (3 uM) mixed 5 h at 4°C, then 70-bp transcription scaffold (-50 to +20, 15-nt mismatch, 10-nt RNA) 1 h, then CF (1.5 uM); dialysed from 300 to 100 mM potassium acetate, 50 mM HEPES-NaOH pH 7.5, 5 mM magnesium acetate, 10 mM DTT; 38,589 particles, 4.4 Å; conditions: both partners purified
T2 construct: A135, second largest subunit of yeast RNA polymerase I; Stood in the assay as a subunit of Pol I within the PIC; also called second largest subunit of Pol I; source: purified from S. cerevisiae strain SC1613 as a subunit of Pol I
T2 sequence (looked up): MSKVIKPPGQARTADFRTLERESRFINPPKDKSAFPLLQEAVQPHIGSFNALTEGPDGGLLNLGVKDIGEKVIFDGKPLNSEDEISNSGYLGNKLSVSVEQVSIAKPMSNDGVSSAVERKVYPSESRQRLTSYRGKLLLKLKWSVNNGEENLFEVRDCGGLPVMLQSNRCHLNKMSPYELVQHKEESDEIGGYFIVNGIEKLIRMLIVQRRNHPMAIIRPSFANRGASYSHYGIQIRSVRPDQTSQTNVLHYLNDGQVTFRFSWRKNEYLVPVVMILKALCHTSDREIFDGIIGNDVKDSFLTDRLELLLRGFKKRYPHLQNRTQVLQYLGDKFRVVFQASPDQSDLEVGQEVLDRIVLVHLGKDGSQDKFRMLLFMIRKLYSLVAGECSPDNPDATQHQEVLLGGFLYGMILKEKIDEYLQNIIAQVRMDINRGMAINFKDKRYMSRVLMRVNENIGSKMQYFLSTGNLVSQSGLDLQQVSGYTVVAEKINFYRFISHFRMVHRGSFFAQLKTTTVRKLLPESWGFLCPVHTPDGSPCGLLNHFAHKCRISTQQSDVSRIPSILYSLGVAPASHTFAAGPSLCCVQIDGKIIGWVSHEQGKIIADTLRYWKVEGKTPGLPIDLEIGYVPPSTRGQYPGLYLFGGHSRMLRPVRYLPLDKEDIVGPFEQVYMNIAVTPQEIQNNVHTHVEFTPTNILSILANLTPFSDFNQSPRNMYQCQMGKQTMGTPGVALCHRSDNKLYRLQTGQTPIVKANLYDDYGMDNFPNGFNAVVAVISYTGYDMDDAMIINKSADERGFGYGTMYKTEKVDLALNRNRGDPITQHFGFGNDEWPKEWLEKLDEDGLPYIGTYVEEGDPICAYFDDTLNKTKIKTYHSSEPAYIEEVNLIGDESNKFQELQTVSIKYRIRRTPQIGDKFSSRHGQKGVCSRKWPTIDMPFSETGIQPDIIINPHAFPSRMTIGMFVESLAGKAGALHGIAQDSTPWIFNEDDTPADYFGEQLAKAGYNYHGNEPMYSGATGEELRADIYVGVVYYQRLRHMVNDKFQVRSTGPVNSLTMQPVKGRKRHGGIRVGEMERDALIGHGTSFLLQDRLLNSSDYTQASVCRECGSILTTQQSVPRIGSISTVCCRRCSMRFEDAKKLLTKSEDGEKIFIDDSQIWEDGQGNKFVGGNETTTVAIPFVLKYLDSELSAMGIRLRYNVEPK

binding result (Rrn7): binds
B1: Rpb12 (natural protein, UniProt P40422 1-70, looked up)
chain: MSREGFQIPTNLDAAAAGTSQARTATLKYICAECSSKLSLSRTDAVRCKDCGHRILLKARTKRLVQFEAR
notes: Rpb12, subunit of yeast RNA polymerase I; Stood in the assay as a subunit of Pol I within the PIC; source: purified from S. cerevisiae strain SC1613 as a subunit of Pol I

binding result (A135): binds
B2: Rrn11 (natural protein, yeast)
chain: MFEVPITLTNRKFAQRRKLKYQYINYISRRFDRISKKSTTTDSLPTPENSAAENNDEEEGQNSEAGTYRRSVLQQKKRRRERHWRSVVGEIYSTTESETDSQEEETEEGGEHDTGIDKEDSDEERKFWKKYEKPEKSFEIWRTVSSQNKQPINKQKMTYHNFKKIEKIPLRKMEIPLLHCTKENKLYFQSISRGLEPLKTSTSEVRNYRTRHIVTLTDLLHLNVSRHNWSLAYKIFATLIRIPGVQIKSLWGIGVEILDNLSNSSSGLDFLQWMCQIYSSKSRFVQNINYRSIVPPFQTGSRTHTAKFAITYLWSSLINCQKSMEPSSNIIDKPFDTENDLLQELIDKISEWVLTPPFMEDAEVWFIYASCHLLKADTLSRQFVNDNKNNDLIGLDRDIKINQVIKHIHYVRTFLKICLDKGGFAVPSRLIENQLKSFESRLYGEAQDIQERDVANVYDSIDNSSVENSFGDVYETNAEFLDTQLMDLSPEDNGLDEMHYSDEDSSE
notes: Rrn11, subunit of yeast Core Factor; Stood in the assay as a subunit of CF within the Pol I PIC; also called CF subunit Rrn11; source: E. coli BL21(DE3)Star pRARE, co-expressed as Core Factor, purified
